Assay results reported in publication PMC7531572.

Target: mAb1 wild-type (monoclonal antibody IgG1) (human)
Assay: SPR

% of maximal binding response of wild-type antibody: 100%
B1: recombinant mouse FcγRIV (receptor)
chain: GLQKAVVNLDPKWVRVLEEDSVTLRCQGTFSPEDNSIKWFHNESLIPHQDANYVIQSARVKDSGMYRCQTALSTISDPVQLEVHMGWLLLQTTKWLFQEGDPIHLRCHSWQNRPVRKVTYLQNGKGKKYFHENSELLIPKATHNDSGSYFCRGLIGHNNKSSASFRISLGDPGSPSMFPPWHQ
